Self-cleavage data for 34 variants are collected here from the RNAGym collection of RNA variant scans (doi:10.1093/nar/gkz1192).

To fix the notation:
B1: CPEB3 Ribozyme (parent)
chain: UAACAGGGGGCCACAGCAGAAGCGUUCACGUCGCAGCCCCUGUCAGAUUCUGGUGAAUCUGCGAAUUCUGCUGUAUAUCUC

This data set covers variants of B1. Briefly: self-cleavage, relative activity (ratio to wild type); higher = more cleavage; in vitro, sequencing. The gist of the method:
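CPEB3 self-cleaving ribozyme mutant libraries were made by rounds of error-prone PCR, barcoded, and transcribed in vitro with T7 RNA polymerase for 5 hours at 37°C. Cleavage occurred during transcription and a 15 min DNase I step before EDTA stop. RNAs were reverse transcribed with template switching and Illumina-sequenced, with DNA sequencing mapping barcodes to variants. Relative activity is the variant's cleaved/total read fraction divided by wild type's (minimum 5 reads), averaged across three batches.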
UAACAGGGGGCCACAGCAGAAGCGUUCACGUCGCAGCCCUUGUCAGAUUCUGGUGAAUCUGCGAAUUCUGCUGUACAUCUC [C40U U76C]: the self-cleavage is 0.92.

Regarding UAACAGGGGGCCACAGCAGAAGCGUUCACGUCGCAGCCCCAGUCAGAUUCUGGUGAAUCUGCGAGUUCUGCUGUAUAUCUC [U41A A65G], the self-cleavage was determined as 0.25.

Consider UAACAGGGGGCCACAGCAGAAGCGUUCACGUCGCAGCCCCAGUCAGAUUCUGGUGAAUCUGCGAUUUCUGCUGUAUAUCUC [U41A A65U], for which the self-cleavage was found to be 0.17.

Take UAACAGGGGGCCACAGCAGAAGCGUUCACGUCGCAGCCCCAGUCAGAUUCUGGUGAAUCUGCGAAUUCUGCUGUCUAUCUC [U41A A75C]: the self-cleavage worked out at 0.31.

On to UAACAGGGGGCCACAGCAGAAGCGUUCACGUCGCAGCCCCAGUCAGAUUCUGGUGAAUCUGCGAAUUCUGCUGUUUAUCUC [U41A A75U], for which the self-cleavage is 0.4.

As for UAACAGGGGGCCACAGCAGAAGCGUUCACGUCGCAGCCCCAGUCAGAUUCUGGUGAAUCUGCGAAUUCUGCUGUGUAUCUC [U41A A75G], the self-cleavage was determined as 0.27.

For UAACAGGGGGCCACAGCAGAAGCGUUCACGUCGCAGCCCCAGUCAGAUUCUGGUGAAUCUGCGAAUUCUGCUGUAUAUCUC [U41A], the self-cleavage amounted to 0.3.

For UAACAGGGGGCCACAGCAGAAGCGUUCACGUCGCAGCCCCAGUUAGAUUCUGGUGAAUCUGCGAAUUCUGCUGUAUAUCUC [U41A C44U], the self-cleavage was determined as 0.23.

As to UAACAGGGGGCCACAGCAGAAGCGUUCACGUCGCAGCCCCAGUAAGAUUCUGGUGAAUCUGCGAAUUCUGCUGUAUAUCUC [U41A C44A], the self-cleavage turned out to be 0.15.

On to UAACAGGGGGCCACAGCAGAAGCGUUCACGUCGCAGCCCUUGUCAGAUUCUGGUGAAUCUGCGAAUUCUGCUGUAUAUCCC [C40U U80C], for which the self-cleavage is 0.76.

With UAACAGGGGGCCACAGCAGAAGCGUUCACGUCGCAGCCCUUGUCAGAUUCUGGUGAAUCUGCGAAUUCUGCUGUAUAUCAC [C40U U80A], the self-cleavage worked out at 0.67.

As to UAACAGGGGGCCACAGCAGAAGCGUUCACGUCGCAGCCCCAGUCAGAUUCUGGUGAAUCUGCGAAUUCUGCUGUAUGUCUC [U41A A77G], the self-cleavage stood at 0.31.

UAACAGGGGGCCACAGCAGAAGCGUUCACGUCGCAGCCCCAGUCAGAUUCUGGUGAAUCUGCGAAUUCUGCUGUAUUUCUC [U41A A77U]: the self-cleavage was determined as 0.31.

Turning to UAACAGGGGGCCACAGCAGAAGCGUUCACGUCGCAGCCCCAGUCAGAUUCUGGUGAAUCUGCGAAUUCUGCUGUAUCUCUC [U41A A77C], the self-cleavage was found to be 0.15.

With UAACAGGGGGCCACAGCAGAAGCGUUCACGUCGCAGCCCUUGUCAGAUUCUGGUGAAUCUGCGAAUUCUGCUGCAUAUCUC [C40U U74C], the self-cleavage worked out at 1.08.

As to UAACAGGGGGCCACAGCAGAAGCGUUCACGUCGCAGCCCUUGUCAGAUUCUGGUGAAUCUGCGAAUUCUGCUGGAUAUCUC [C40U U74G], the self-cleavage is 1.04.

As to UAACAGGGGGCCACAGCAGAAGCGUUCACGUCGCAGCCCCAGUCAGAUUCUGGUGAAUCUGCGCAUUCUGCUGUAUAUCUC [U41A A64C], the self-cleavage is 0.15.

As to UAACAGGGGGCCACAGCAGAAGCGUUCACGUCGCAGCCCCAGUCAGAUUCUGGUGAAUCUGCGUAUUCUGCUGUAUAUCUC [U41A A64U], the self-cleavage is 0.29.

Take UAACAGGGGGCCACAGCAGAAGCGUUCACGUCGCAGCCCCAGUCAGAUUCUGGUGAAUCUGCGGAUUCUGCUGUAUAUCUC [U41A A64G]: the self-cleavage amounted to 0.28.

In the case of UAACAGGGGGCCACAGCAGAAGCGUUCACGUCGCAGCCCCAGUCAGAUUCUGGUGAAUUUGCGAAUUCUGCUGUAUAUCUC [U41A C59U], the self-cleavage amounted to 0.06.

UAACAGGGGGCCACAGCAGAAGCGUUCACGUCGCAGCCCCAGUCAGAUUCUGGUGAAUAUGCGAAUUCUGCUGUAUAUCUC [U41A C59A]: the self-cleavage is 0.13.

As to UAACAGGGGGCCACAGCAGAAGCGUUCACGUCGCAGCCCCAGUCAGAUUCUGGUGAUUCUGCGAAUUCUGCUGUAUAUCUC [U41A A57U], the self-cleavage came out at 0.13.

For UAACAGGGGGCCACAGCAGAAGCGUUCACGUCGCAGCCCCAGUCAGAUUCUGGUGACUCUGCGAAUUCUGCUGUAUAUCUC [U41A A57C], the self-cleavage is 0.4.

Turning to UAACAGGGGGCCACAGCAGAAGCGUUCACGUCGCAGCCCCAGUCAGAUUCUGGUGAGUCUGCGAAUUCUGCUGUAUAUCUC [U41A A57G], the self-cleavage was determined as 0.25.

For the variant UAACAGGGGGCCACAGCAGAAGCGUUCACGUCGCAGCCCCAGUCAGAUUCUGGUGUAUCUGCGAAUUCUGCUGUAUAUCUC [U41A A56U], the self-cleavage is 0.29.

In the case of UAACAGGGGGCCACAGCAGAAGCGUUCACGUCGCAGCCCCAGUCAGAUUCUGGUGGAUCUGCGAAUUCUGCUGUAUAUCUC [U41A A56G], the self-cleavage worked out at 0.24.

Regarding UAACAGGGGGCCACAGCAGAAGCGUUCACGUCGCAGCCCUUGUCAGAUUCUGGUGAAUCUGCGAAUUCUGCUGUAUAACUC [C40U U78A], the self-cleavage was 0.75.

Turning to UAACAGGGGGCCACAGCAGAAGCGUUCACGUCGCAGCCCUUGUCAGAUUCUGGUGAAUCUGCGAAUUCUGCUGUAUACCUC [C40U U78C], the self-cleavage turned out to be 0.56.

For UAACAGGGGGCCACAGCAGAAGCGUUCACGUCGCAGCCCCAGUCAGGUUCUGGUGAAUCUGCGAAUUCUGCUGUAUAUCUC [U41A A47G], the self-cleavage was 0.29.

Take UAACAGGGGGCCACAGCAGAAGCGUUCACGUCGCAGCCCCAGUCAGCUUCUGGUGAAUCUGCGAAUUCUGCUGUAUAUCUC [U41A A47C]: the self-cleavage is 0.18.

As to UAACAGGGGGCCACAGCAGAAGCGUUCACGUCGCAGCCCCAGUCAGUUUCUGGUGAAUCUGCGAAUUCUGCUGUAUAUCUC [U41A A47U], the self-cleavage was found to be 0.3.

UAACAGGGGGCCACAGCAGAAGCGUUCACGUCGCAGCCCCAGUCCGAUUCUGGUGAAUCUGCGAAUUCUGCUGUAUAUCUC [U41A A45C]: the self-cleavage amounted to 0.18.

With UAACAGGGGGCCACAGCAGAAGCGUUCACGUCGCAGCCCCAGUCUGAUUCUGGUGAAUCUGCGAAUUCUGCUGUAUAUCUC [U41A A45U], the self-cleavage was 0.2.

For the variant UAACAGGGGGCCACAGCAGAAGCGUUCACGUCGCAGCCCCAGUCGGAUUCUGGUGAAUCUGCGAAUUCUGCUGUAUAUCUC [U41A A45G], the self-cleavage is 0.24.
